This data set concerns the molecule itself. The data set can be described thus: cryo-EM structure.

B1: PilA5 (TT_C1836), pilin of Thermus thermophilus HB27 (subunit of the narrow type IV pilus) (natural protein, T. thermophilus HB27, UniProt Q72GL2 6-116, looked up)
chain: FTLIELAIVIVIIGILVAIAVPRFVDLTDQANQANVDATAAAVRSAYAIATVQAKGIPTCDQVFANPEGGSTSGSTWTSSDNSTTVSCNASADTFTISRGGKTRTLNLTVN
modifications: extra density at Ser73, suggested to be O-linked glycosylation; disulphide bond Cys60-Cys88
B1: the binding result is reported as “binds”.

B2: PilA4, major pilin of Thermus thermophilus HB27 (subunit of the wide type IV pilus) (natural protein, T. thermophilus HB27, UniProt Q72JC0 7-131, looked up)
chain: FTLIELLIVIAIIAILAAVLIPNLLAARKRANDTVVTAYLNDAVKFQEMYQIDNNSYTSNQAALISLGLKSTPANVTFSIVSASANSYCMIAGHSGGTVWFAATPDKGVYKTNTAVTSSQPESCP
modifications: extra densities at Ser59, Ser66 and Ser71, suggested to be O-linked glycosylation; disulphide bond Cys89-Cys124
With B2, the binding result was “binds”.

The values above are taken from article doi:10.1101/720938 (bioRxiv, 2019).
